Patent publication US20180127504A1 (ACADEMIA SINICA, published 2018)

B1: anti-VEGFR2-AF fully human antibody (hAb) (antibody, human IgG1)
heavy: not shown
light: DIQMTQSPSSLSASVGDRVTITCKASDDIINYLNWYQQKPGEAPKLLIYDASILETGVPSRFSGSGSGTDFTFTISSLQPEDIATYYCQQLDDIPITFGGGTKLEIK
notes: also called anti-VEGFR2-AF hAb; R2S12-AF in human IgG1 backbone; not shown: kappa constant region of vector p-Kappa-HuGs
B2: anti-VEGFR2 fully human antibody (hAb) (antibody)
heavy: not shown
light: DIQMTQSPSSLSASVGDRVTITCKASDDIINYLNWYQQKPGEAPKLLIYDASILETGVPSRFSGSGSGTDFTFTISSLQPEDIATYYCQQYDILPLTFGGGTKLEIK
notes: also called anti-VEGFR2 hAb; R2S12 in human IgG1 backbone; not shown: kappa constant region of vector p-Kappa-HuGs
B3: R2PC45 (scFv, V domains shown)
VH: QVNLRESGGGVVQPGRSLRLSCAASGFTFSSYAMHWVRQAPGKGLEWVAVISYDGSNKYYADSVKGRFTISRDNSKNTLYLQMNSLRAEDTAVYYCAREQDYGSSSGDAFDIWGQGTMVTVSS
VL: DIQMTQSPSSLSASVGDRVTITCRASQRISSYLNWYQQKPGKAPKLLIYDASNLQSGVPSRFSGSGSGTDFTLTINGLQPDDFAIYFCHQSYSAPPTFGQGTKVEIK
notes: also called anti-VEGFR2 scFv phage clone 45

Key:
[1] = molecular target: T1, VEGFR2-Fc recombinant protein (R&D Systems) (human, UniProt P35968 20-764); assay: solid-phase competitive ELISA: antibody against 4 nM VEGF-A on immobilized VEGFR2
T1 construct: Bought protein; also called VEGFR2 recombinant protein; immobilized VEGFR2; not shown: Fc part of the bought fusion protein; not described
T1 sequence (P35968 20-764 limits assumed): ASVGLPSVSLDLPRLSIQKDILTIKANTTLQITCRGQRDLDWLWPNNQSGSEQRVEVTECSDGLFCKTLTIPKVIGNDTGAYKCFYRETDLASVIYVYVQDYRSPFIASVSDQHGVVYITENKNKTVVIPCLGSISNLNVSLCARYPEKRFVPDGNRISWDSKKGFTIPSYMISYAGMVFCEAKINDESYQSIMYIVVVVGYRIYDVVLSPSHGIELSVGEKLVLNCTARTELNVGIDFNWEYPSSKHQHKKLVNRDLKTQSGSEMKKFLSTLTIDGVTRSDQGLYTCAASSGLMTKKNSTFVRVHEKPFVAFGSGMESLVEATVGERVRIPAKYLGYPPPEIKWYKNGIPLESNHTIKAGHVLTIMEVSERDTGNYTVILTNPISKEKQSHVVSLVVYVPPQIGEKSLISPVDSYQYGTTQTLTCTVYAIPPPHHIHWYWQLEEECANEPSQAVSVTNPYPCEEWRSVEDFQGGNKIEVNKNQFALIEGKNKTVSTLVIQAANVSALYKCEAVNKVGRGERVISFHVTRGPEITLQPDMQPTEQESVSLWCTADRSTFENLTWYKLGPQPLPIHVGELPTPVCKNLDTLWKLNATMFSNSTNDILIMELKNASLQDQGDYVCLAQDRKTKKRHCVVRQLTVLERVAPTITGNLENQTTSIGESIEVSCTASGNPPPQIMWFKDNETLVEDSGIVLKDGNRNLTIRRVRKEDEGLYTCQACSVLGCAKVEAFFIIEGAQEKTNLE

[2] = molecular target: T1, VEGFR2-Fc recombinant protein (R&D …); assay: SPR, BIACORE T100, VEGFR2-Fc coupled to CM5 chip, IgG as analyte
Method: (§1) The affinity and kinetics of anti-VEGFR2 antibodies were measured by surface plasmon resonance in a BIACORE T100™ (GE healthcare). VEGFR2-Fc protein was coupled to an EDC- and NHS-activated CM5 sensor chip in a BIACORE flow cell, and then blocked with ethanolamine according to the manufacturer's directions. Associated and dissociated phases were monitored under continuous flow of 30 μl/min, using antibody concentrations ranging from 0.1 to 100 nM for 5 min. Regeneration was performed by injection of regenerate buffer (0.2 M NaCl, 10 mM glycine, pH 2.7). To determine binding constants, the sensorgrams were fit globally to a sample 1:1 interaction model using BIAevaluation software (GE healthcare).
(§2) We analyzed the affinity of both human antibodies to VEGFR2 using a BIACORE T100™.

[3] = molecular target: T1, VEGFR2-Fc recombinant protein (R&D …); assay: surface plasmon resonance, BIACORE T100, VEGFR2-Fc coupled to a CM5 chip, purified IgG as analyte
Method: as §1, §2

[4] = molecular target: T1, VEGFR2-Fc recombinant protein (R&D …); assay: phage ELISA, 1x10^9 cfu phage on coated VEGFR2-Fc, anti-M13-HRP detection
Method: (§3) The selected phages were further examined by ELISA screening. The 96-well plates were coated with […] of VEGFR2-Fc, Met-Fc (R&D), or BSA (Sigma) protein in 0.1 M sodium bicarbonate overnight at 4° C. After blocking with 1% BSA in PBS (w/v) for 2 hr at room temperature, 70-randomly selected phage clones were added to the plates at a 1:2 dilution in 1% BSA, and incubated for 1 hr at room temperature. Following washes with PBST, the plates were incubated with a 1:2000 dilution of horseradish peroxidase (HRP)-conjugated mouse anti-M13 phage antibody (GE) for 1 hr. After washing with PBST, the colorimetric reaction was developed with the peroxidase substrate ortho-phenylenediamine (OPD; Sigma) plus H₂O₂ for 15 min, and then terminated by the addition of 3 N HCl. The absorbance at 490 nm was determined using a microplate reader (SpectraMax, Molecular Devices). Plasmid DNA of positive clones were isolated and sequenced using the pCANTAB5 sequencing primer set.
(§4) After four rounds of affinity selection (biopanning), the titer of bound phage increased by as much as 3,455-fold (FIG. 1A).

[5] = molecular target: T2, VEGFR2 on the cell surface of human umbilical vein endothelial cells (HUVEC) (human, UniProt P35968 20-1356); assay: flow cytometry on HUVECs, 1x10^10 cfu phage, anti-M13 and PE-labelled secondary antibody
T2 construct: Endogenous receptor of human cells; also called cell-surface VEGFR2; cellular VEGFR2
T2 sequence (P35968 20-1356 limits assumed): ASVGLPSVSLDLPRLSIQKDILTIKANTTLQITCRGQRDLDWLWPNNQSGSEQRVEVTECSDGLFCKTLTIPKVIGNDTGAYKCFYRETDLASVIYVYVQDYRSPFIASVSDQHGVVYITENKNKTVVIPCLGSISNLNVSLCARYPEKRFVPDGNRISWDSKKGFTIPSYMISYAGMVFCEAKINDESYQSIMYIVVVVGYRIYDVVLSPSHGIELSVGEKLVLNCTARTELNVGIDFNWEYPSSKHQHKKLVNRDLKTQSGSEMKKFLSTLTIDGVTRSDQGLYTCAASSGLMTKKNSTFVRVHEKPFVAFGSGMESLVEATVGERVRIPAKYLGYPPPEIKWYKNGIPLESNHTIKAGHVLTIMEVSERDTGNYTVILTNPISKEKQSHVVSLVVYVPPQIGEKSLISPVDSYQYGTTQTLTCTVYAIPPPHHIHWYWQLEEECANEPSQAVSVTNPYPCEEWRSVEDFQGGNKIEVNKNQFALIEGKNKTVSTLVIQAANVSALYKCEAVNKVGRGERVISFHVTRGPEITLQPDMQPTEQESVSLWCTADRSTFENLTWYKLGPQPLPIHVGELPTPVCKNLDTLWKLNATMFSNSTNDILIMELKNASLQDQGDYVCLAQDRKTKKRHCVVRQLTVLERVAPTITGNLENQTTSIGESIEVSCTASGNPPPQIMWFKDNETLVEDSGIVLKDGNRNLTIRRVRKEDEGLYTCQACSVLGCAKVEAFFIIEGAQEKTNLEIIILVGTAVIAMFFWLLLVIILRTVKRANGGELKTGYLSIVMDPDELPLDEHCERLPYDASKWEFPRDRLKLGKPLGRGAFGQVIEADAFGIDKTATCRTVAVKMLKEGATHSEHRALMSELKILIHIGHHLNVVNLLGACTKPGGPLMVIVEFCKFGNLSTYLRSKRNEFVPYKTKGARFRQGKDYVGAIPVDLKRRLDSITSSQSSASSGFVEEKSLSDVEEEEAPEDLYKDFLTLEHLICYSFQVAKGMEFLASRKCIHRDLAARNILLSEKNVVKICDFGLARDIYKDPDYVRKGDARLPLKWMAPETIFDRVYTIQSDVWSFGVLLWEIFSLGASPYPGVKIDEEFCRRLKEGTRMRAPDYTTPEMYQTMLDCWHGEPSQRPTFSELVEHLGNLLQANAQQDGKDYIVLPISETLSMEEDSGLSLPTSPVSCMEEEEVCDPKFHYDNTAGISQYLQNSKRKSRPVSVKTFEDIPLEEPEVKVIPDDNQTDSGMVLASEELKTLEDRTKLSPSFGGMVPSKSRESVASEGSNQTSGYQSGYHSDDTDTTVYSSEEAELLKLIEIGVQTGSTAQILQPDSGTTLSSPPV
Method: About 1×10⁴ HUVEC were incubated with the selected anti-VEGFR2 phage clones at 4° C. for 1 hour in FACS buffer (PBS containing 1% fetal bovine serum). After the cells were washed with FACS buffer, they were first incubated with mouse anti-M13 phage Ab for 1 hr at 4° C., and then with R-phycoerythrin-conjugated goat anti-mouse IgG (Jackson Immuno Research) for 30 min at 4° C. Flow cytometry was performed with a FACSCantoII (BD), and emission fluorescence intensity was measured with FACS Diva software (BD) to quantitatively compare binding affinities.
as §4

c-Met-Fc control protein = molecular target: T3, c-Met-Fc control protein (UniProt P08581 25-932, limits assumed); assay: phage ELISA on coated MET-Fc, anti-M13-HRP detection
T3 construct: Bought control protein; also called Met-Fc (R&D); c-Met-Fe; not shown: Fc part of the bought fusion protein; not described
T3 sequence (P08581 25-932 limits assumed): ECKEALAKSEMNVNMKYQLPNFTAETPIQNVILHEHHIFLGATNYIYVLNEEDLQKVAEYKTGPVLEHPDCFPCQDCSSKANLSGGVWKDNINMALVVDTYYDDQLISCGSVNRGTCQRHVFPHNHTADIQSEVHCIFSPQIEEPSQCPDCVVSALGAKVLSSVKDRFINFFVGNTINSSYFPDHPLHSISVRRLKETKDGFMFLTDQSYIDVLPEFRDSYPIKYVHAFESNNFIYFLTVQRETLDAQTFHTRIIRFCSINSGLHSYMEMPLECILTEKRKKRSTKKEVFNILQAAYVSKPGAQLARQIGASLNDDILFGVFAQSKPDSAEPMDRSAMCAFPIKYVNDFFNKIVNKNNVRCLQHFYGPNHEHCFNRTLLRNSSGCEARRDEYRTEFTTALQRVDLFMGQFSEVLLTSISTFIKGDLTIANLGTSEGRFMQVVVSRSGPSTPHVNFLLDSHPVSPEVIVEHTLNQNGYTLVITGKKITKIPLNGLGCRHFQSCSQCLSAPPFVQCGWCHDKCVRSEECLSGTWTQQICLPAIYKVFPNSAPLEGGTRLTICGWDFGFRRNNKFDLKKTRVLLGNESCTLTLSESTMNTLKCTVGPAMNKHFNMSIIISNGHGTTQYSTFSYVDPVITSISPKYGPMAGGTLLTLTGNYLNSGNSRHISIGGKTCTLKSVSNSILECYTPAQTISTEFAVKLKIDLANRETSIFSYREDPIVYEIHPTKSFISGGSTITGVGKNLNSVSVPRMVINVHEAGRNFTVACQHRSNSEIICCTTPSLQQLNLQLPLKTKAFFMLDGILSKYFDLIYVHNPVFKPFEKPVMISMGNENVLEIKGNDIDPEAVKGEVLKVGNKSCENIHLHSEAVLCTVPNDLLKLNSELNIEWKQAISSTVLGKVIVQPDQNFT
Method: as §3, §4

| Binder | IC50 [1] [nM] | Kd [2] [nM] | koff [3] [s⁻¹] | kon [3] [M⁻¹ s⁻¹] | binding result [4] | binding result [5] | binding result (c-Met-Fc control protein) |
| --- | --- | --- | --- | --- | --- | --- | --- |
| B1 | 0.88 | 0.264 | 0.000442 | 1.67e+06 | – | – | – |
| B2 | 1.87 | 2.1 | 0.000472 | 225000 | – | – | – |
| B3 | – | – | – | – | binds | binds | no binding (tested: 1x10^9 cfu) |
